Measured values as given in the supplement of paper PMC10567573.

B1: ZNF449 (parent)
chain: RIHSGEEPHKCPECGKRFLRSSDL

Variants of: B1
Experiment: protein stability index of a GFP-peptide fusion (GPS, HEK-293T) (PSI 1-6); higher = more stable
Settings: c terminus: a fixed tail appended
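Also: lentivirally expressed fusions sorted by FACS into six bins by GFP to DsRed ratio, PSI derived from sequencing read proportions per bin multiplied by bin number.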

Protein stability index: each site, then its substitutions
C14: M 4.21 | N 4.3 | P 4.06 | Q 4.96 | R 4.32 | S 4.77 | T 4.69 | V 4.21 | W 4.39 | Y 3.6
G15: A 3.9 | C 3.28 | D 3.27 | E 4.24 | F 3.48 | H 2.87 | I 3.6 | K 3.63 | L 3.58 | M 3.88 | N 3.52 | P 4.37 | Q 3.85 | S 3.76 | T 3.89 | V 3.25 | W 2.87 | Y 3.44
K16: C 3.32 | D 4.41 | E 3.99 | F 2.55 | G 3.13 | H 3.19 | I 2.93 | L 2.78 | M 2.61 | N 3.58 | P 3.82 | Q 3.66 | R 3.9 | S 3.68 | T 3.68 | V 2.37 | W 2.69 | Y 3.77
R17: A 3.61 | C 3.74 | D 3.71 | E 4.2 | F 3.2 | G 3.12 | H 4.23 | I 3.72 | K 4.13 | L 3.08 | M 3.59 | N 3.4 | P 3.66 | Q 3.63 | S 4 | T 3.97 | V 3.17 | W 3.97 | Y 3.58
F18: A 5.36 | C 4.15 | D 4.4 | E 4.56 | I 3.22 | K 4.33 | L 2.86 | M 3.32 | N 4.68 | P 3.83 | Q 3.58 | R 3.33 | S 3.29 | T 3.75 | V 2.92 | W 3.5 | Y 3.87
L19: A 3.96 | C 4.48 | D 3.88 | E 4.32 | F 3.26 | G 4.31 | H 3.41 | I 2.76 | K 4.04 | M 4.05 | N 3.27 | P 3.54 | Q 4.41 | R 3.74 | S 4.05 | T 3.65 | V 3.32 | W 3.09 | Y 3.23
R20: A 4.09 | C 3.88 | D 3.47 | E 3.91 | F 3.35 | H 2.89 | I 2.91 | K 3.25 | L 3.32 | M 3.41 | N 4.21 | P 3.99 | Q 4.3 | S 3.82 | T 3.17 | V 2.27 | W 2.31 | Y 2.86
S21: A 3.31 | C 3.69 | D 4.25 | F 2.15 | G 3.75 | H 3.44 | I 3.04 | K 4.17 | L 2.48 | M 2.24 | N 3.56 | P 2.86 | Q 2.75 | R 2.65 | T 3.56 | Y 3.22
S22: A 2.93 | C 3.94 | D 4.06 | E 3.62 | F 2.77 | G 3.74 | H 3.56 | I 2.77 | K 2.57 | L 2.67 | M 2.28 | N 3.3 | P 3.5 | R 3.02 | T 3.05 | V 3.58 | W 1.94 | Y 3.01
D23: A 2.23 | C 2.75 | E 2.52 | F 2.04 | H 3.41 | I 1.61 | K 2.77 | L 2.16 | N 2.8 | P 2.29 | Q 1.86 | R 1.51 | S 2.46 | T 2.7
